According to patent US20110274694A1 (JULIUS MAXIMILIANS UNIVERSITAET WUERZBURG, published 2011):

Target: T1, HA-tagged wild-type Erk2 (HA-Erk2, T188T or AA1-358) (mouse, UniProt P63085 1-358)
T1 construct: Mouse cDNA in a CMV expression plasmid, expressed in transfected cells; also called wt-Erk2; not shown: hemagglutinin (HA) tag
Experiment: co-precipitation of HA-tagged and Flag-tagged Erk2 after carbachol stimulation
Procedure: HEK293-cells were cultured in the absence or presence of carbachol (100 μM, 6 min) or UK14304 (1 μM, 10 min) before lysis. The inventors prepared ventricular tissue from mouse hearts derived from male 129SvEv (FIG. 1g,h), FVB/N wild-type (WT) or Erk2^T188-transgenic mice (1188T, T188D, T188S, T188A) (FVB/N background) without or after transverse aortic constriction (TAC, see Fig. legends for the duration of TAC) or carbachol-infusion. Control animals were strain-, age- and gender-matched. Lysates of ventricular tissue underwent sonification before immunoblot or immunoprecipitation assays.
FIG. 4 Activation of the entire MAPK-cascade is necessary for interaction of Gβγ with Erk1/2. […] (b) Gene silencing of Raf1 suppressed the carbachol-stimulated interaction of Erk1/2 with Gβ as assessed by co-immunoprecipitation with ERK1/2-specific antibodies (anti-ERK1/2). (c) Inhibition of Mek1/2-activity by PD98059 (50 μM) suppressed the carbachol-stimulated (CCH, 5 min) interaction of HA-Raf1 (Raf1) with Gβ as assessed by co-immunoprecipitation. […] (g, h) Interactions of HA-tagged wild-type Erk2 (AA1-358), truncated Erk2-mutants (AA1-318; AA22-358; AA22-318) and dimerization-deficient Erk2^Δ174-177 with Gβγ as assessed by co-immunoprecipition (g) and carbachol-stimulated inositol phosphate signaling (h) in HEK293-cells. […]

B1: Flag-Erk2^Δ174-177 (enzyme)
chain: MAAAAAAGPEMVRGQVFDVGPRYTNLSYIGEGAYGMVCSAYDNLNKVRVAIKKISPFEHQTYCQRTLREIKILLRFRHENIIGINDIIRAPTIEQMKDVYIVQDLMETDLYKLLKTQHLSNDHICYFLYQILRGLKYIHSANVLHRDLKPSNLLLNTTCDLKICDFGLARVADHTGFLTEYVATRWYRAPEIMLNSKGYTKSIDIWSVGCILAEMLSNRPIFPGKHYLDQLNHILGILGSPSQEDLNCIINLKARNYLLSLPHKNKVPWNRLFPNADSKALDLLDKMLTFNPHKRIEVEQALAHPYLEQYYDPSDEPIAEAPFKFDMELDDLPKEKLKELIFEETARFQPGYRS
notes: also called D174-177; dimerization-deficient Erk2^Δ174-177-mutant; not shown: Flag tag
- binding result: no binding
